Laboratory results published in the supplement of paper PMC6757056.
± gives the standard deviation of the averaged measurements.

B1: library; a variant is named by its letters at N, in order (parent)
chain: GCUGUCACCGGUGCUUGGUACGUUAUAUUCAGCCGGUCUGAUGAGUCUNNNNNNAGACGAAACAGC

Columns and labels:
(6R,S)-folinic acid [1] = variants of: B1; assay: FACS-Seq fitted mean relative fluorescence mCherry/BFP without ligand (log10 relative fluorescence); HEK293T overexpressing SLC46A1; higher = higher reporter protein expression; conditions: without (6R,S)-folinic acid; ligand present: no
Protocol: (§1)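 Hammerhead (sTRSV) ribozyme switch libraries with a ligand aptamer grafted on stem I and a randomized N4-6 loop II, cloned into the 3' UTR of mCherry and transiently transfected into HEK293T cells; RNA-Seq 72 h post transfection with ligand added 1 h before transfection; RNA read count / plasmid DNA read count normalized to the non-cleaving sTRSVctl (x100), log10; sequences with >100 DNA reads. FACS-Seq: lentiviral library sorted into 6 bins after 48 h ligand, log-normal fit mean of mCherry/BFP scaled to controls. Printed sequences are partial switch sequences.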

(6R,S)-folinic acid [2] = variants of: B1; assay: normalized RNA/DNA level without ligand (relative to sTRSVctl = 100) (log10 (% of sTRSVctl)); HEK293T overexpressing SLC46A1; higher = less ribozyme self-cleavage, higher mRNA level; conditions: without (6R,S)-folinic acid; ligand present: no
Protocol: as §1

(6R,S)-folinic acid [3] = variants of: B1; assay: FACS-Seq fitted mean relative fluorescence mCherry/BFP with ligand (log10 relative fluorescence); HEK293T overexpressing SLC46A1; ligand concentration (+) FACS-Seq: 6 mM; higher = higher reporter protein expression; conditions: with (6R,S)-folinic acid; ligand present: yes
Protocol: as §1

(6R,S)-folinic acid [4] = variants of: B1; assay: normalized RNA/DNA level with ligand (relative to sTRSVctl = 100) (log10 (% of sTRSVctl)); HEK293T overexpressing SLC46A1; ligand concentration (+) RNA-Seq: 6 mM; higher = less ribozyme self-cleavage, higher mRNA level; conditions: with (6R,S)-folinic acid; ligand present: yes
Protocol: as §1

| Variant | FACS-Seq fitted mean (log10) ((6R,S)-folinic acid [1]) | normalized RNA/DNA level without ligand (log10) ((6R,S)-folinic acid [2]) | FACS-Seq fitted mean (log10) ((6R,S)-folinic acid [3]) | normalized RNA/DNA level with ligand (log10) ((6R,S)-folinic acid [4]) |
| --- | --- | --- | --- | --- |
| CAACGA | 0.682 ± 0.03 | 2.008 ± 0.0085 | 0.653 ± 0.17 | 2.005 ± 0.018 |
| GAAGUG | 0.327 ± 0.098 | 1.8629 ± 0.0002 | 0.369 ± 0.033 | 1.99 ± 0.026 |
| GAAGUU | 0.522 ± 0.18 | 2.007 ± 0.0088 | 0.481 ± 0.2 | 2.04 ± 0.03 |
| GAAGUA | 0.299 ± 0.013 | 1.966 ± 0.0082 | 0.331 ± 0.045 | 2.014 ± 0.019 |
| UAACUU | 0.511 ± 0.0079 | 1.994 ± 0.011 | 0.408 ± 0.12 | 2 ± 0.045 |
| UAACUA | 0.248 ± 0.065 | 1.98 ± 0.027 | 0.41 ± 0.11 | 2.03 ± 0.028 |
| UAACUG | 0.401 ± 0.0068 | 1.846 ± 0.015 | 0.499 ± 0.1 | 2 ± 0.024 |
| UAAAUG | 0.33 ± 0.034 | 1.7477 ± 0.001 | 0.685 ± 0.3 | 1.95 ± 0.039 |
| AACCAA | 0.377 ± 0.016 | 1.989 ± 0.0067 | 0.433 ± 0.11 | 2 ± 0.028 |
| CAAGGA | 0.62 ± 0.052 | 1.981 ± 0.019 | 0.722 ± 0.17 | 1.99 ± 0.052 |
| CAAGGG | -0.428 ± 0.17 | 1.88 ± 0.02 | -0.164 ± 0.057 | 1.99 ± 0.013 |
| GAAUGG | 0.297 ± 0.079 | 1.89 ± 0.013 | 0.386 ± 0.37 | 2.03 ± 0.019 |
| GAAUGA | 0.25 ± 0.057 | 1.992 ± 0.0057 | 0.299 ± 0.2 | 2.02 ± 0.022 |
| UAAGCG | 0.384 ± 0.026 | 1.736 ± 0.0051 | 0.777 ± 0.031 | 1.96 ± 0.045 |
| UAAGCA | 0.463 ± 0.0091 | 1.9355 ± 0.00085 | 0.377 ± 0.12 | 1.99 ± 0.021 |
| UAAGCU | 0.334 ± 0.089 | 1.992 ± 0.014 | 0.436 ± 0.13 | 2.021 ± 0.0075 |
| AAAGUG | -0.0552 ± 0.019 | 1.675 ± 0.0049 | 0.25 ± 0.14 | 1.95 ± 0.031 |
| AAAGUC | 0.0964 ± 0.057 | 2.066 ± 0.014 | 0.235 ± 0.08 | 2.03 ± 0.047 |
| GAAGCG | 0.117 ± 0.13 | 1.929 ± 0.012 | 0.259 ± 0.065 | 2.02 ± 0.034 |
| GAAGCU | 0.0826 ± 0.071 | 2.018 ± 0.015 | 0.0358 ± 0.15 | 2.04 ± 0.022 |
| GAAGCA | 0.272 ± 0.031 | 1.967 ± 0.015 | 0.486 ± 0.021 | 2 ± 0.024 |
| GAAGAG | 0.0515 ± 0.088 | 1.837 ± 0.0055 | 0.356 ± 0.15 | 2.03 ± 0.034 |
| GAAGAU | 0.124 ± 0.065 | 1.968 ± 0.0035 | 0.379 ± 0.13 | 2.03 ± 0.032 |
| GAAGAA | -0.708 ± 0.014 | 1.973 ± 0.0039 | -0.827 ± 0.004 | 2.03 ± 0.04 |

| Variant | FACS-Seq fitted mean (log10) ((6R,S)-folinic acid [1]) | normalized RNA/DNA level without ligand (log10) ((6R,S)-folinic acid [2]) | FACS-Seq fitted mean (log10) ((6R,S)-folinic acid [3]) | normalized RNA/DNA level with ligand (log10) ((6R,S)-folinic acid [4]) |
| --- | --- | --- | --- | --- |
| GAAGAC | 0.635 ± 0.035 | 1.97 ± 0.0057 | 0.574 ± 0.24 | 2.03 ± 0.025 |
| GAACCU | -0.507 ± 0.14 | 2.02 ± 0.0076 | -0.0321 ± 0.22 | 2.02 ± 0.04 |
| AAAGAG | 0.224 ± 0.031 | 1.617 ± 0.0032 | 0.316 ± 0.22 | 1.93 ± 0.049 |
| AAAGAA | 0.282 ± 0.14 | 1.923 ± 0.011 | 0.569 ± 0.098 | 1.99 ± 0.037 |
| AAAGAC | 0.42 ± 0.029 | 1.98 ± 0.0069 | 0.38 ± 0.23 | 2.01 ± 0.028 |
| AAAGAU | 0.433 ± 0.025 | 1.9288 ± 0.0013 | 0.44 ± 0.027 | 2 ± 0.032 |
| GACAAA | 0.367 ± 0.089 | 1.974 ± 0.0039 | 0.306 ± 0.081 | 2.007 ± 0.019 |
| GACAAC | 0.378 ± 0.076 | 1.987 ± 0.0049 | 0.472 ± 0.21 | 2.004 ± 0.013 |
| AAAGCA | 0.3689 ± 0.0015 | 1.975 ± 0.0052 | 0.575 ± 0.35 | 1.98 ± 0.044 |
| AAAGCG | 0.0389 ± 0.01 | 1.743 ± 0.0089 | 0.352 ± 0.079 | 1.989 ± 0.013 |
| UACAGA | 0.358 ± 0.072 | 1.913 ± 0.011 | 0.548 ± 0.15 | 1.99 ± 0.037 |
| UACAGG | 0.254 ± 0.021 | 1.661 ± 0.0093 | 0.489 ± 0.051 | 1.96 ± 0.033 |
| UACAGU | 0.183 ± 0.13 | 1.92 ± 0.021 | 0.133 ± 0.26 | 1.994 ± 0.0074 |
| AAACUG | 0.318 ± 0.15 | 1.933 ± 0.0021 | 0.151 ± 0.091 | 2 ± 0.037 |
| CACACA | 0.66 ± 0.12 | 1.97 ± 0.026 | 0.319 ± 0.036 | 1.98 ± 0.031 |
| CACACU | 0.136 ± 0.099 | 2.008 ± 0.011 | 0.187 ± 0.057 | 2.03 ± 0.011 |
| UAAUGA | 0.29 ± 0.014 | 1.872 ± 0.006 | 0.227 ± 0.042 | 2 ± 0.022 |
| UAAUGU | 0.615 ± 0.038 | 1.896 ± 0.0068 | 0.695 ± 0.092 | 2 ± 0.055 |
| UAAUGG | 0.152 ± 0.043 | 1.601 ± 0.011 | 0.399 ± 0.18 | 1.923 ± 0.0091 |
| UAAUGC | 0.147 ± 0.059 | 1.946 ± 0.017 | 0.234 ± 0.13 | 1.98 ± 0.032 |
| AAAUCC | 0.504 ± 0.068 | 2.044 ± 0.013 | 0.398 ± 0.23 | 2.03 ± 0.044 |
| AAAUCG | 0.416 ± 0.0066 | 1.955 ± 0.0094 | 0.42 ± 0.12 | 2.03 ± 0.036 |
| CAAGCU | 0.363 ± 0.071 | 2.047 ± 0.0037 | 0.443 ± 0.099 | 2.05 ± 0.043 |
| CAAGCA | 0.195 ± 0.065 | 2.018 ± 0.012 | 0.434 ± 0.14 | 2.03 ± 0.032 |

| Variant | FACS-Seq fitted mean (log10) ((6R,S)-folinic acid [1]) | normalized RNA/DNA level without ligand (log10) ((6R,S)-folinic acid [2]) | FACS-Seq fitted mean (log10) ((6R,S)-folinic acid [3]) | normalized RNA/DNA level with ligand (log10) ((6R,S)-folinic acid [4]) |
| --- | --- | --- | --- | --- |
| UAAUUG | 0.377 ± 0.016 | 1.794 ± 0.0071 | 0.456 ± 0.012 | 1.972 ± 0.017 |
| UACACA | 0.187 ± 0.0057 | 1.974 ± 0.012 | -0.044 ± 0.049 | 1.9892 ± 0.0017 |
| UACACG | 0.231 ± 0.14 | 1.808 ± 0.0037 | 0.348 ± 0.022 | 1.95 ± 0.053 |
| GAAUUG | 0.416 ± 0.035 | 1.928 ± 0.0066 | 0.46 ± 0.014 | 2 ± 0.066 |
| GAAUUA | 0.508 ± 0.088 | 2.0059 ± 0.0002 | 0.572 ± 0.15 | 2.03 ± 0.031 |
| AAAAGG | 0.512 ± 0.12 | 1.875 ± 0.005 | 0.459 ± 0.17 | 1.98 ± 0.038 |
| AAAAGC | 0.477 ± 0.09 | 1.999 ± 0.011 | 0.358 ± 0.1 | 2.03 ± 0.042 |
| AAACAG | 0.346 ± 0.021 | 1.925 ± 0.0068 | 0.296 ± 0.11 | 1.99 ± 0.046 |
| AAACAC | 0.222 ± 0.096 | 2.001 ± 0.01 | 0.0733 ± 0.14 | 2.01 ± 0.026 |
| AAACAU | 0.298 ± 0.095 | 1.971 ± 0.0055 | 0.199 ± 0.17 | 2.01 ± 0.045 |
| AAACAA | 0.376 ± 0.066 | 1.971 ± 0.0088 | 0.436 ± 0.009 | 1.99 ± 0.022 |
| UAAUAG | 0.255 ± 0.04 | 1.75 ± 0.028 | 0.58 ± 0.11 | 1.96 ± 0.057 |
| UAAUAU | 0.201 ± 0.005 | 1.922 ± 0.0069 | 0.297 ± 0.077 | 1.99 ± 0.026 |
| GAAAUA | 0.624 ± 0.015 | 2.008 ± 0.007 | 0.26 ± 0.23 | 2.02 ± 0.038 |
| GAAAUG | 0.4312 ± 0.0042 | 1.954 ± 0.012 | 0.551 ± 0.067 | 2.03 ± 0.043 |
| GACAUU | 0.457 ± 0.096 | 2.024 ± 0.013 | 0.529 ± 0.11 | 2 ± 0.064 |
| GACAUA | 0.346 ± 0.14 | 1.984 ± 0.0071 | 0.3032 ± 0.002 | 2.01 ± 0.044 |
| AAACCA | 0.226 ± 0.23 | 2 ± 0.01 | 0.0655 ± 0.071 | 2 ± 0.03 |
| GACACA | 0.265 ± 0.028 | 1.99 ± 0.02 | 0.656 ± 0.046 | 2 ± 0.037 |
| AACAAC | -0.0136 ± 0.067 | 2.028 ± 0.006 | -0.491 ± 0.14 | 2.02 ± 0.024 |
| AACAAA | 0.414 ± 0.011 | 1.967 ± 0.017 | 0.365 ± 0.15 | 1.99 ± 0.021 |
| AACAAU | 0.338 ± 0.22 | 1.935 ± 0.0082 | 0.122 ± 0.3 | 1.97 ± 0.039 |
| AACAAG | 0.152 ± 0.031 | 1.923 ± 0.0084 | 0.113 ± 0.2 | 2.02 ± 0.036 |
